According to IntAct's records for PubMed 33452816:

B1: Pleckstrin homology domain-containing family M member 1 (Homo sapiens), Q9Y4G2 (parent)
chain: MLSVVENGLDPQAAIPVIKKKLVGSVKALQKQYVSLDTVVTSEDGDANTMCSALEAVFIHGLHAKHIRAEAGGKRKKSAHQKPLPQPVFWPLLKAVTHKHIISELEHLTFVNTDVGRCRAWLRLALNDGLMECYLKLLLQEQARLHEYYQPTALLRDAEEGEFLLSFLQGLTSLSFELSYKSAILNEWTLTPLALSGLCPLSELDPLSTSGAELQRKESLDSISHSSGSEDIEVHHSGHKIRRNQKLTASSLSLDTASSSQLSCSLNSDSCLLQENGSKSPDHCEEPMSCDSDLGTANAEDSDRSLQEVLLEFSKAQVNSVPTNGLSQETEIPTPQASLSLHGLNTSTYLHCEAPAEPLPAQAASGTQDGVHVQEPRPQAPSPLDLQQPVESTSGQQPSSTVSETAREVGQGNGLQKAQAHDGAGLKLVVSSPTSPKNKSWISEDDFYRPSREQPLESASDHPIASYRGTPGSRPGLHRHFSQEPRKNCSLGALDQACVPSPGRRQAQAAPSQGHKSFRVVHRRQMGLSNPFRGLMKLGTVERRGAMGIWKELFCELSPLEFRLYLSNEEHTCVENCSLLRCESVGPAHSDGRFELVFSGKKLALRASSQDEAEDWLDRVREALQKVRPQQEDEWVNVQYPDQPEEPPEAPQGCLSPSDLLSEPAALQGTQFDWSSAQVPEPDAIKESLLYLYMDRTWMPYIFSLSLEALKCFRIRNNEKMLSDSHGVETIRDILPDTSLGGPSFFKIITAKAVLKLQAGNAEEAALWRDLVRKVLASYLETAEEAVTLGGSLDENCQEVLKFATRENGFLLQYLVAIPMEKGLDSQGCFCAGCSRQIGFSFVRPKLCAFSGLYYCDICHQDDASVIPARIIHNWDLTKRPICRQALKFLTQIRAQPLINLQMVNASLYEHVERMHLIGRRREQLKLLGDYLGLCRSGALKELSKRLNHRNYLLESPHRFSVADLQQIADGVYEGFLKALIEFASQHVYHCDLCTQRGFICQICQHHDIIFPFEFDTTVRCAECKTVFHQSCQAVVKKGCPRCARRRKYQEQNIFA

Legend:
[1] = variants of: B1; settings: with rab7a_canlf RAB7A
[2] = variants of: B1; settings: with gbrap_human GABARAP

Variant	effect of a mutation on the interaction [1]	effect of a mutation on the interaction [2]
S432D;S435D	with no effect	with no effect
S432A;S435A	with no effect	with no effect
